Laboratory results: the nanobody polyreactivity screen of Harvey et al. (2022)

Assay: yeast display, Sf9 membrane polyspecificity reagent, FACS + sequencing; frameworks hold sequencing errors
Outline: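 A synthetic nanobody library was expressed on Saccharomyces cerevisiae BJ5465 by galactose induction for 36–48 hours. The library was stained for 1 hour at 4 °C with 10% biotinylated, detergent-solubilized Sf9 membrane reagent and enriched with streptavidin microbeads before FACS. Low and high (top ~1%) gates were set on anti-HA fluorescence for expression and streptavidin fluorescence for reagent binding, and each polyreactivity label reflects the gate of origin.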

| Sequence | polyreactivity (PSR sort gate) |
| --- | --- |
| QVQLVESGGGLVQAGGSLRLSCAASGRISASYAMGWYRQAPGKEREWVAAITGSGGSTYYADSVKGRFTISRDNAQNTVYLQMNSLKPEDTGVYYCAAEPVLSVFFEFDSWGQGTQVTVSS | low polyreactivity |
| QVQLVESGGGLVQAGGSLRLSCAASGFIFYDYVMGWYRQAPGKERELVAAISASGGSTYYADSVKGRFTISRDNAKNTVYLQMNCLKPEDTAVYYCNARPKYDSGHYYWGQGTQVTVSS | high polyreactivity |
| QVQLVESGGGLVQAGGSLRLSCAPSGLTFKDYTMGWYRQAPGKERELVAAISKSGGRTYYADSVKGRFTISRDNAKNTVYLQMNSLKPEDTAVYYCNADSRTYRYYWSYGYWGQGTQVTVSS | high polyreactivity |
| QVQLVESGGGLVQAGGSLRLSCAASGSSFDDKAMGWYRQAPGKERELVASITYRGGSTYYADSVKGRFTISRDHAKNTVNLHIKSLKPEVTAVYYCDKGHYFKYDYWGQGTQVTVSS | low polyreactivity |
| QVQLVESGGGLVQARGSLRLSCAASGSIFLYYAMGWYRQAPGKEREFVAAISIIGGSTYYADSVKGRFTISRDNAKNTVYLQMNSLKPEDTAVYYCAADYYYHRWTSVEGGYWGQGTQVTVSS | low polyreactivity |
| QVQLVESGGGLVQAGGSLRLSCAASGSIFLPYAMGWYRQAPGKERELVAAIDTSSGSTYYADSVKGRFTISRDNAKNTVYLQMNSLKPEDTAVYYCNADYWVQGDDWLLYDYWGQGTQVTVSS | low polyreactivity |
| QVQLVESGGGLVQAGGSLRLTCAASGSTFRYYVMGWYRQAPGKERELVAGISYRGGTTYYADSVKGRFTISRDNAKNTVYLQMNSLKPEDTAVYYCNAETAAAQASYDRLYVLLDYWGQGTQVTVSS | low polyreactivity |
| QVQLVESGGGLVQAGGSLRLTCAASGGIFRPNAMGWYRPAPGKERELVASIDDGDSTNYADSVKGPFTISRDNAKNTVSLQMNSLKPEDTAVYYFAAEQGYTVIYDYWGQGSQVTVSS | low polyreactivity |
| QVQLVESGGGLVQAGGSLRLSCAASGFIFSGYAMGWYRQAPGKERELVASISWSGARTNYADSVKGRFTISRDNAKNTVYLQMNSLKPEDTAVYYCAAQVGRGYEVYPVYKYGYWGQGTQVTVSS | high polyreactivity |
| QVQLVESGGGLVQAGGSLRLSCAASGSTFRTYAMGWYRQAPGKERELVAAISGDTSTNYADSVKGRFTISRDNAKNTVYLQMNSLKPEDTAVYYCAAYWTTYATLWYDYWGQGTQVTVSS | low polyreactivity |
| QVQLVESGGGLVQAGGSLRLSCAASGSIFGYEMGWYRQAPGRERELVAAISFSGVSTYYADSVKGRFTISRDNAKNTVYIQMNSLKQEDTAVYNCNAYSDGDEDYWVQGTQVTVSS | low polyreactivity |
| QVQLVESGGGLVQAGGSLRLSCAASGSTIPRNALGWYRQATGKERELVPAISSGGSTYYADSVKWRFTISRDNAKNTVYLQMNRLKPEDTAVYYCAARLYWPIIVVDLYGYDYWGQGTQVTVSS | low polyreactivity |
| QVQLVESGGGLVQAGGSLRLSCAASGSTIKYYAMGWYRQAPGKDRELVAAINWSGDSTYYADSVKGRFTISRDNAKNTVYLQMHSLKPEETAVYYCAVRYQKRAYYGSNYWGQGTQVTVSS | high polyreactivity |
| QVQLVESGGGLVQAGGSLRLSCAASGFIFGINAMGWYRQAPGKDRELVATITSGGGTNYADSVKGRFTISRDNAKNTVYLQMNSLKPEETAVYYCAAEEDYISFYVSMDYWGQGTQVTVSS | low polyreactivity |
| QVQLVESGGGLVQAGGSLRLSCAASGYIFYTYAMGCYRQAPGKERELVAGISGSGGSTYYADSVKGRFTISRDNAKNTVYLQMNSLNPEETAVYYCAKDIYQIGYRRYDSWGQGTQVTVSS | low polyreactivity |
| QVQLVESGGGLVQAGGSLRLSCAASGFIFEYYAMGWYRQAPGKERELVAAISSSGGSTYYADSVKGRFTISRDNAKNTVYLQMNSLKPEDTAVYYCAKDYAPSATKLHYWGQGTQVTVSS | low polyreactivity |
| QVQIVESGGGLVQAGGSLRLSCAASGSIFSVYAMGWYRQAPGKERELVAGINRRTGITYYADSVKGRFTISRDNAKNTVYLQMNSLKPEDTAVYYCAADPYVKYNYWGQGTQVTVSS | low polyreactivity |
| QVQLVESGGGLVQAGGSLRLSCAASGGTFVFYAMGWYRQAPGKERELVAAISSAGRTYYADSVKGRFTISRDNAKNTVYFQMNSLKPEDNAVYYCAAVSSQYDGRYYYWGQGTQVTVSS | high polyreactivity |
| QVQLVESGGGLVQAGGSLRLICAASGFTFYIYAMGWYRQAPGKERELVAAINFRGGSTYYADSVKGRFTLSRDNAKNTVYLQMNSLKPEDTAVYYCAAVPRTYSGYYYWGQGTKVTVSS | high polyreactivity |
| QVQLVESGGGLVQAGGSLRLSCAASGVTFSLNTMGWYRQSPGKERELVAAINSGDSTYADSVKGRFTISRDNAKNTVYVQMNSLKPEDTAVYYCTADPDWWYPYNYWGQGTQVTVSS | low polyreactivity |
| QVQLVESGGGLVQAGGSLRLSCAASGRTFRYYAMGWYRQAPGKERELVASITSGGRTYYADSVKGRFTISRDNAKNTVYLQMNSLKPEDTAVYYCAASTRYEGNYWGQGTQVTVSS | high polyreactivity |
| QVQLVESGGGLVQAGGSLRLSCAASGLIFSGYAMGWYRQAPGKDRELVAAITWSGGRTYADSVKGRFTISRDNAKNTVYLQMNSLKPEDTAVYYCNADAYIDYWPYTWDYDYWGQGTQVTVSS | high polyreactivity |

| Sequence | polyreactivity (PSR sort gate) |
| --- | --- |
| QVQLVESGGGLVQAGGSLRLSCAASGNIFWRYGMGWYRQAPGKERELVAAITSGGTGTYYADSVKGRFTISRDNAKNTVYLQMNSLKPEDTAVYYCAARRWTNHYFYGWFYYWGQGTQVTVSS | high polyreactivity |
| QVQLVESVGGLVQAGGSLRLSCAASGSTSSLYAMGWYRQAPGKERELVASITSRGGSTYYAVSVKGRFTISRDNAKNTVYLLMNSLKPEDTAVYYCAADASRPDRWYLWKYYYWGQGTQVTVSS | high polyreactivity |
| QVQLVDSGGGLVQAGGSLPLICADAGSTFNSYAMGRYRQAPGKKRELVAAIRWIGDSTYADSVKGRFTISRDNATNTVYLQMNSLKPVDTAVYYCAATDVSWGVDYWGQCTQVTVSS | low polyreactivity |
| QVQLVESGGGLVQAGGSLRLSCAASGRIFGINAMGWYRQAPGKERELVAAITSGVSTNYADSVKGRFTISRDNAKNTVYLQMNSLKPEDTAVYYCATRRNRSYDYWGQGTQVTVSS | low polyreactivity |
| QVQLVESGGGLVQAGGSLRLICAASGSIFGSSAMGWYRQAPGKERSTYYADSVKGRFTISRDNAKNTVYLQMNSLKPEDTAVYYCAADTYGYQGSAGGHWGQGTQVTVSS | low polyreactivity |
| QVQLVESGGGLVQAGGSLRLSCAASGSTFYPYAMGWYRPAHGKERELVAAITSRVGRTYYADSVKGRFTISRDNAKNTVYLQMNSLKPEDTAVYYCAAKIFIRVHYYSYRMYYWGQGTQVTVSS | low polyreactivity |
| QVQLVESGGGLVQAGGSLRLSCAASGIIFRYYAMGWYRQAPGKEREFVADISASDGSTYYADSVKGRFTISRDNAKNTVYLQMNSQKPEDTAVSYCNARKYWKYGSYQYYWGQGTEVTVSS | high polyreactivity |
| QVQLVDSGGGLVQAGGSLLLSCAASGFTFTIYAMGWNRQAPGKERELVATISGRAGRTYYADSVKGRFTISRDNAKNTVYLQMNSLKPEDTAVYYCNAGQWRYPGLYYYWGQGTQVTVSS | high polyreactivity |
| QVQLVESGGGLVQAGGSLRLTCAASGYTFAGNAMGWYRQAPGKERELVAALSRSGGRTYYADSVKGRFTISRDNAKTTVYLQMNSLKPEDTAVYYCAASYRYTEYVSTWGFGYWGQGTQVTVSS | high polyreactivity |
| QVQLVESGGGLVQAGGSLRLSCAASGFTFRRNAMGWYRQAPGKERELVAAINVRDGSTYYADSVKGRFTISRDNAKNTVYLQMNSLKPEDTAVYYCAAEFFQGYYWYYYWGQGTQVTVSS | high polyreactivity |
| QFQLVESGGGLVQAGGSLRLSCAASGRTFVPYVMGWYRQAPGKERELVASITSGGSTYYADSVKGRFTISRDNAKNTVYLQMNSLNPEDTAVYYCATRQSAERWGYYYWGQGTQVTVSS | low polyreactivity |
| QVQLVESGGGLVQAGGSLRLSCAASGRILIHYAMRWYRQAPGKERELVAAIDNSVSTYYADSVKGRFTISRDNAKNTVYLQMNSLKPEDTAVYYCAADHWTHSVWGSGYKYYYWGQGTQVTVSS | high polyreactivity |
| QDQLVESGGGLVQAGGSLPLSCAASGRTISAYAMGWYRQAPGKERELVAAISRRGGSTYYADSVKGRFSISRDNAKNTVYLQLNSLKPEETAVYYCAADVYKQYGYYYWGEGTQVTVSS | high polyreactivity |
| QVQLVESGGGLVQAGGSLRLSCAASGRIFRYYAMGWYRQAPGKERELVAAITWSGGSTYYADSVKGRFTISRDNAKNTVYLQMNSLKPEDTAVYYCNAKSYQPFHGDYWGQGTQVTVSS | low polyreactivity |
| QVQLVESGGGLVQAGGSLRLSCAASGFTFDVYTMGWYRQAPGKEREFVAAISGSGGSTYYADSVKGRFTISRDNAKNTVYLQMNSLKPEDTAVYYCNAGLSRVSHRHLSHSLQGYDYWGQGTQVTVSS | low polyreactivity |
| QVQLVESGGGLVQAGGSLSLICAASGRFSNAMGWYIQAPGKERELVAAITLSGTSTYYADSVKGRFTISRDNAKNTVYLQMNSLKTEDTAVYYCAAGSGYGVTWVYSPYTGVDYWGQGTQVTVSS | low polyreactivity |
| QVQLVESGGGLVQAGGSLRLSCAASGSTFGVYAMGWYRQAPGKERELVAAISYTGGSTYYADSVKGRFTISRDNAKNTVYLQMNSLKPEDTAVYYCATRSRDQYSVSYRLDYWGQGTQVTVSS | low polyreactivity |
| QVQLVESGGGLVQAGGSLRLSGAASGSILWSYALGCYIQAPGKERELVAAIRSGGSTYYADSVKGRFTISRDNAKNTVYFQMNSLKPEDTAVLYCNATYAPLFEYDYWGQGTQVTVSS | low polyreactivity |
| QVQLVESGGGLVQAGGSLRLSCAASGRTFGGNAMGWYRQAPGKEREYVAAISRSGTSTYYADSVKGRFTISRDNAKNTVYLQMNSLKPEDTGVYYCAALNYHKFAHKSDYWGQGTQVTVSS | low polyreactivity |
| QVQLVESGGGLVQAGGSLRLSCAASGFIFPYYAMGWYRQAPGKERELVAAITSSGGRTYYADSVKGRFTISRDNAKNTVYFQMNSLKPEDTAVYYCAAYYLTPTDVEYDYWGQGTQVTVSS | high polyreactivity |
| QVQLVESGGGLVQAGGSLRLSCAASGRIFWDNAMGWYRQAPGKVRELVAVMNSGDSTNYADSVKGRFTISRDNAKNTVYLQMNSLKPEDTAVYYCATDFIGVIYDYWGQGTQVTVSS | low polyreactivity |
